In patent US9327008B2, “Cell-permeant peptide-based inhibitor of kinases” (Purdue Research Foundation, priority 2008, dated 2016):

How the values were obtained:
Format in all cases: biochemical
[1] = molecular target: T1, MK3 (Homo sapiens, UniProt Q16644); assay: Millipore radiometric kinase activity assay, MK3; conditions: SD of 2 samples
T1 construct: purchased Millipore (assay service)
Experimental: (§1) A commercial radiometric assay service (Millipore, Billerica, Mass.) was used to test the specificity and potency of peptides containing a coupled transduction domain and therapeutic domain, hereinafter “complete peptides”). In these assays, if the kinase is not inhibited by an inhibitor peptide, a positively charged substrate is phosphorylated with a radiolabeled phosphate group from an ATP.
(§2) IC50 values for inhibitor peptides were determined using Millipore's IC50Profiler Express service. The IC50 value was estimated from a 10-point curve of one-half log dilutions. For peptides tested for specificity, the concentration of the peptides that inhibited approximately 95% of MK2 activity was chosen to profile against a battery of kinases related to MK2, cell viability, or human disease from MilliporeKinaseProfiler service. In both assays, compounds were supplied in dimethylsulfoxide (DMSO). Every kinase activity measurement was conducted in duplicate.
(§3) Additional therapeutic inhibitor peptide variants were assayed for activity against several human kinases representative of several families of kinases. These kinases included: MK2; MK3; CaMKI (calcium/calmodulin-dependent protein kinase); PRAK (p38 regulated/activated protein kinase, also known as mitogen-activated protein kinase activated protein kinase 5 (MAPKAPK5)); SAPK2a (p38α); IRAK4 (IL-1 receptor (IL-1R)-associated kinase); MLCK (myosin light chain kinase); PKBβ (protein kinase B); PCKδ (protein kinase C); and ROCK-I (Rho-associated serine/threonine kinase).

[2] = molecular target: T2, PRAK (Homo sapiens, UniProt Q8IW41); assay: Millipore radiometric kinase activity assay, PRAK (h); conditions: SD of 2 samples
T2 construct: purchased Millipore (assay service)
T2 sequence (Q8IW41 1-473): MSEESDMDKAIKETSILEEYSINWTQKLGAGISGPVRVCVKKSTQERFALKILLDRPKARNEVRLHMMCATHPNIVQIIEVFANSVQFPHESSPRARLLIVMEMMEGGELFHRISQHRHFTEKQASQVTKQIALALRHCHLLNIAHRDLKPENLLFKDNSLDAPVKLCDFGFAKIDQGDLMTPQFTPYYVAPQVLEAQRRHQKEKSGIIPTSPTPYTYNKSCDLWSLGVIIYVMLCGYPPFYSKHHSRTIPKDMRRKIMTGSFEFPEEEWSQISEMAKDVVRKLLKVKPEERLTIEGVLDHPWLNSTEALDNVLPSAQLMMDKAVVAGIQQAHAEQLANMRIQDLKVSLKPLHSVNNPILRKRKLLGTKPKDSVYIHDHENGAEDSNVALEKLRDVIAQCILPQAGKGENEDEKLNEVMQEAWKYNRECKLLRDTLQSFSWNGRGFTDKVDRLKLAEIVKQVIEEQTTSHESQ
Experimental: as §1
In a final reaction volume of 25 μL, PRAK (h) (5-10 mU) is incubated with 50 mM Naβ-glycerophosphate pH 7.5, 0.1 mM EGTA, 30 μM […] [SEQ ID NO: 65], 10 mM MgAcetate and [γ-^33P-ATP] (specific activity approx. 500 cpm/pmol, concentration as required). The reaction is initiated by the addition of the MgATP mix. After incubation for 40 minutes at room temperature, the reaction is stopped by the addition of 5 μL of a 3% phosphoric acid solution. 10 μL of the reaction is then spotted onto a P30 filtermat and washed three times for 5 minutes in 50 mM phosphoric acid and once in methanol prior to drying and scintillation counting.
as §2, §3

[3] = molecular target: T3, ROCK-I (Homo sapiens, UniProt Q13464); assay: Millipore radiometric kinase activity assay, ROCK-I (h); conditions: for ROCK-1 Kinase Activity: peptide inhibitor 300 μM, SD of 2 samples
T3 construct: purchased Millipore (radiometric assay service)
T3 sequence (Q13464 whole entry): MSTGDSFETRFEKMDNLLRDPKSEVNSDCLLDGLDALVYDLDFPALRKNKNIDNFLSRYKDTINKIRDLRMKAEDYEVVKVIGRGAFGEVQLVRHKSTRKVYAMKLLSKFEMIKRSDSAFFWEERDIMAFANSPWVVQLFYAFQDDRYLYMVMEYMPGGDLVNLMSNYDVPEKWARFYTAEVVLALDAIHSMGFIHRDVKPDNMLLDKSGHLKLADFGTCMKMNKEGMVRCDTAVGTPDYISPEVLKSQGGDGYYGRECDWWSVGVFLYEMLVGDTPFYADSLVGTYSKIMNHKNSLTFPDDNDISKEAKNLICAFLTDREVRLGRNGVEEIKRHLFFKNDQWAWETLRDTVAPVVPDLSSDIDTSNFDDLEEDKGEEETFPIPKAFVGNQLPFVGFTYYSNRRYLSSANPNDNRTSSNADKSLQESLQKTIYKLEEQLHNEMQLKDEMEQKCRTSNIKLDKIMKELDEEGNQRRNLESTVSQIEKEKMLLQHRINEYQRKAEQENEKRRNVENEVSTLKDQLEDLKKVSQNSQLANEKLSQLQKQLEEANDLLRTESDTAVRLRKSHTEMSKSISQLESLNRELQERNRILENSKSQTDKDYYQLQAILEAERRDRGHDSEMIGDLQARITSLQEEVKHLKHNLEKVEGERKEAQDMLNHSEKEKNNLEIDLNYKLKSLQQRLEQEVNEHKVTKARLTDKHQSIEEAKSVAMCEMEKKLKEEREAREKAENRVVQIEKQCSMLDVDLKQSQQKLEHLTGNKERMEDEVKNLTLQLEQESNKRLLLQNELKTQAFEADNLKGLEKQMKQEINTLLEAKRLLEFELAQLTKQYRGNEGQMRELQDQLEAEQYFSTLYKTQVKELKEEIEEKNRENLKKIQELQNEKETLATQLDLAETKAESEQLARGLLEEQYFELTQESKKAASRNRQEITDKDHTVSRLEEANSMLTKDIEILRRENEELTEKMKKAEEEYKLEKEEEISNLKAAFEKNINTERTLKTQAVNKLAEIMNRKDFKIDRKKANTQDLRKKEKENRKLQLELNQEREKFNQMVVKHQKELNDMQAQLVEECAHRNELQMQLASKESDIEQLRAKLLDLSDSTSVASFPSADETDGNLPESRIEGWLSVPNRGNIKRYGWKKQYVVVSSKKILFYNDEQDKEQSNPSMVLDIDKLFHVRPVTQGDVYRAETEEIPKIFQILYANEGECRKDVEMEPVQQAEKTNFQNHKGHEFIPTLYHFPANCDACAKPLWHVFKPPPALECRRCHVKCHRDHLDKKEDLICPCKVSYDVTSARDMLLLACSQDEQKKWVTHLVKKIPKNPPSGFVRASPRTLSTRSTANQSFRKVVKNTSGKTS
Experimental: as §1
In a final reaction volume of 25 μL, ROCK-I (b) (5-10 mU) is incubated with 8 mM MOPS pH 7.0, 0.2 mM EDTA, 30 μM […] [SEQ ID NO: 63], 10 mM MgAcetate and [γ-^33P-ATP] (specific activity approx. 500 cpm/pmol, concentration as required). The reaction is initiated by the addition of the MgATP mix. After incubation for 40 minutes at room temperature, the reaction is stopped by the addition of 5 μL of a 3% phosphoric acid solution. 10 μL of the reaction is then spotted onto a P30 filtermat and washed three times for 5 minutes in 75 mM phosphoric acid and once in methanol prior to drying and scintillation counting.
as §2
(§4) Therapeutic inhibitor peptides were assayed for activity against human kinases related to MK2, cell viability, or human disease. The assays were performed using concentrations of therapeutic inhibitor peptides that yielded 2% to 8% of normal MK2 activity. Error is reported as the standard deviation between 2 samples, and “c” is rat AMPK whereas all other kinases used are human kinases.
as §3

[4] = molecular target: T4, IRAK4 (Homo sapiens, UniProt Q9NWZ3); assay: Millipore radiometric kinase activity assay, IRAK4 (h)
T4 construct: purchased Millipore (assay service)
T4 sequence (Q9NWZ3 1-460): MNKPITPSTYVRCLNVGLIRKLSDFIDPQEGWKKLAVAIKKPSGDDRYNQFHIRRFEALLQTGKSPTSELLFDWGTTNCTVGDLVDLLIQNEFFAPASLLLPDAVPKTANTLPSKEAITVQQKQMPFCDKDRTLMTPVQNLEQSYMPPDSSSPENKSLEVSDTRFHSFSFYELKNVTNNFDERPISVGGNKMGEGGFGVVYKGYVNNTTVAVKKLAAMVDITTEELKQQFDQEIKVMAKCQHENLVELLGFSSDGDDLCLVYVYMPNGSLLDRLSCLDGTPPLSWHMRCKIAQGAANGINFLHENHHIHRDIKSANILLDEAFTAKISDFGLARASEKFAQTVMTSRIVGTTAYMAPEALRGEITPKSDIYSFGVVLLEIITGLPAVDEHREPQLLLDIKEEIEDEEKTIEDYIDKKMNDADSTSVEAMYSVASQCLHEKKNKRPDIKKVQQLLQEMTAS
Experimental: as §1
In a final reaction volume of 25 μL, IRAK4 (h) (5-10 mU) is incubated with 8 mM MOPS pH 7.0, 0.2 mM EDTA, 0.33 mg/mL myelin basic protein, 10 mM MgAcetate and [γ-^33P-ATP] (specific activity approx. 500 cpm/pmol, concentration as required). The reaction is initiated by the addition of the MgATP mix. After incubation for 40 minutes at room temperature, the reaction is stopped by the addition of 5 μL of a 3% phosphoric acid solution. 10 μl of the reaction is then spotted onto a P30 filtermat and washed three times for 5 minutes in 75 mM phosphoric acid and once in methanol prior to drying and scintillation counting.
as §2, §4, §3

[5] = peptide 30 μM, listed as WLRRIKAWLRRI-
[6] = peptide 100 μM, listed as KAFAKLAARLYRLARQLGVAA

T1 sequence (Q16644 whole entry): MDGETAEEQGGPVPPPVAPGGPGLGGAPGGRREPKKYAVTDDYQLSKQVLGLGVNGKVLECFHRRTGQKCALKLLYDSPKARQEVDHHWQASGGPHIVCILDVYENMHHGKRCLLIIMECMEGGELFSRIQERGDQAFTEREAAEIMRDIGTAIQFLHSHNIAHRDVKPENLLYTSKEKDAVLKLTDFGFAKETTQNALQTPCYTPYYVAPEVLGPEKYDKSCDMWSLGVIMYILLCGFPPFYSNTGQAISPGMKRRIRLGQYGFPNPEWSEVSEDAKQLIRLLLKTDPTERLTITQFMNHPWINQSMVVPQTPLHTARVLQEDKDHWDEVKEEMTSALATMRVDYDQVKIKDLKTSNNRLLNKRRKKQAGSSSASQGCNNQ

## YARAAARQARAKALARQLGVAA
[1]; peptide inhibitor 300 μM
  MK3 Kinase Activity: 5(1) %
[2]; peptide inhibitor 300 μM
  PRAK Kinase Activity: 86(2) %
[3]
  ROCK-1 Kinase Activity: 27(4) %

## WLRRIKAWLRRIKALNRQLGVAA
[1]; peptide inhibitor 30 μM
  MK3 Kinase Activity: 16(2) %
[2]; peptide inhibitor 30 μM
  PRAK Kinase Activity: 67(9) %
[4]; peptide 30 μM
  IRAK4 Kinase Activity (%) (+SD %): 12(1) %
[4]; [5]
  IRAK4 Kinase Activity (%) (+SD %): 12 (1) %
[4]; peptide 100 μM
  IRAK4 Kinase Activity (%) (+SD %): 13 (4) %
[3]; peptide 30 μM
  ROCK-1 Kinase Activity (%) (+SD %): 0(1) %
[3]; [5]
  ROCK-1 Kinase Activity (%) (+SD %): 0 (1) %
[3]; peptide 100 μM
  ROCK-1 Kinase Activity (%) (+SD %): 25 (2) %

## FAKLAARLYRKALARQLGVAA
[1]; peptide inhibitor 100 μM
  MK3 Kinase Activity: 10(1) %
[2]; peptide inhibitor 100 μM
  PRAK Kinase Activity: 131(4) %
[4]; peptide 100 μM
  IRAK4 Kinase Activity (%) (+SD %): 13(4) %
[3]; peptide 100 μM
  ROCK-1 Kinase Activity (%) (+SD %): 25(2) %

## KAFAKLAARLYRKALARQLGVAA
[1]; peptide inhibitor 100 μM
  MK3 Kinase Activity: 17(1) %
[2]; peptide inhibitor 100 μM
  PRAK Kinase Activity: 148(4) %
[4]; peptide 100 μM
  IRAK4 Kinase Activity (%) (+SD %): 16 (2) %
[4]; [6]
  IRAK4 Kinase Activity (%) (+SD %): 16(2) %
[3]; peptide 100 μM
  ROCK-1 Kinase Activity (%) (+SD %): 29 (0) %
[3]; [6]
  ROCK-1 Kinase Activity (%) (+SD %): 29(0) %

## YARAAARQARAKALNRQLGVAA
[1]; peptide inhibitor 300 μM
  MK3 Kinase Activity: 19(3) %
[2]; peptide inhibitor 300 μM
  PRAK Kinase Activity: 81(3) %
[4]; peptide inhibitor 300 μM, SD of 2 samples
  IRAK4 Kinase Activity: 68(3) %
[3]
  ROCK-1 Kinase Activity: 95(7) %
